This passage reports % of gated cells in the positive quadrant results from patent publication US20110243929A1.

The target of assay [1] is cynomolgus ICOS (cynomolgus). In words: flow cytometry, cynomolgus splenic naive T cells (CD4+ CD45RA+). (A flow cytometer gives signals particle by particle.)
For assay [2], the target named is cynomolgus ICOS (cynomolgus). Put plainly: flow cytometry, cynomolgus splenic memory T cells (CD4+ CD45RA-).
Assay [3] concerns the target cynomolgus ICOS (cynomolgus). Put plainly: flow cytometry, cynomolgus mesenteric lymph node naive T cells (CD4+ CD45RA+).
For assay [4], the target named is cynomolgus ICOS (cynomolgus). Put plainly: flow cytometry, cynomolgus mesenteric lymph node activated T cells (CD4+ CD45RA-).

Sequence of cynomolgus ICOS (cynomolgus) (A0A2K5 entry or part of it limits assumed): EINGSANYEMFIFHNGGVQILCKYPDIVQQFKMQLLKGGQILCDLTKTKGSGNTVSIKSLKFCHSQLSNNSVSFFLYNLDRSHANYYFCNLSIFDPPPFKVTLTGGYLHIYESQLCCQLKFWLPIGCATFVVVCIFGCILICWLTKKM

For Isotype Control (antibody), the % of gated cells in the positive quadrant was 1.7% in assay [1], 2.4% in assay [2], 2.8% in assay [3] and 1.64% in assay [4].
